In IntAct's records for PubMed 22070932:

B1: DAZ-associated protein 2 (Homo sapiens), Q15038 (parent)
chain: MNSKGQYPTQPTYPVQPPGNPVYPQTLHLPQAPPYTDAPPAYSELYRPSFVHPGAATVPTMSAAFPGASLYLPMAQSVAVGPLGSTIPMAYYPVGPIYPPGSTVLVEGGYDAGARFGAGATAGNIPPPPPGCPPNAAQLAVMQGANVLVTQRKGNFFMGGSDGGYTIW
partner: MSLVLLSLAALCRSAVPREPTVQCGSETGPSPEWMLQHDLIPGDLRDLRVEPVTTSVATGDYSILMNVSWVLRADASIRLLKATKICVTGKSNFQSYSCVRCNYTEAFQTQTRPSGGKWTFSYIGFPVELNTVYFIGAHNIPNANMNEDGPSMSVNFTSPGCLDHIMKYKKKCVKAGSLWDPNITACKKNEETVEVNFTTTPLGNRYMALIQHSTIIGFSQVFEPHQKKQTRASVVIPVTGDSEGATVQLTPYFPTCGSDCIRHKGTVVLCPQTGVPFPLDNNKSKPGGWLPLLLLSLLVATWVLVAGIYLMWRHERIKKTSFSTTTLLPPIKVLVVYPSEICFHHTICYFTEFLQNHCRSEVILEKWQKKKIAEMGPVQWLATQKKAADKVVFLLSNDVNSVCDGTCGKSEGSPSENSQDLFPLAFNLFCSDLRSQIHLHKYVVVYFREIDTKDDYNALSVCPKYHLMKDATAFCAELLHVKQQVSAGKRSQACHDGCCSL
B2: DAZ-associated protein 2 (Homo sapiens), Q15038 (parent)
chain: B1 chain

Variants of: B1
Conditions: with IL17RB

effect of a mutation on the interaction	Variant
disrupting interaction strength	Y42A;Y165A
decreasing interaction strength	Y42A
decreasing interaction strength	Y165A

Variants of: B2
Conditions: with smuf2_human SMURF2, Q9HAU4
Sequence of smuf2_human SMURF2, Q9HAU4 (Q9HAU4 whole entry): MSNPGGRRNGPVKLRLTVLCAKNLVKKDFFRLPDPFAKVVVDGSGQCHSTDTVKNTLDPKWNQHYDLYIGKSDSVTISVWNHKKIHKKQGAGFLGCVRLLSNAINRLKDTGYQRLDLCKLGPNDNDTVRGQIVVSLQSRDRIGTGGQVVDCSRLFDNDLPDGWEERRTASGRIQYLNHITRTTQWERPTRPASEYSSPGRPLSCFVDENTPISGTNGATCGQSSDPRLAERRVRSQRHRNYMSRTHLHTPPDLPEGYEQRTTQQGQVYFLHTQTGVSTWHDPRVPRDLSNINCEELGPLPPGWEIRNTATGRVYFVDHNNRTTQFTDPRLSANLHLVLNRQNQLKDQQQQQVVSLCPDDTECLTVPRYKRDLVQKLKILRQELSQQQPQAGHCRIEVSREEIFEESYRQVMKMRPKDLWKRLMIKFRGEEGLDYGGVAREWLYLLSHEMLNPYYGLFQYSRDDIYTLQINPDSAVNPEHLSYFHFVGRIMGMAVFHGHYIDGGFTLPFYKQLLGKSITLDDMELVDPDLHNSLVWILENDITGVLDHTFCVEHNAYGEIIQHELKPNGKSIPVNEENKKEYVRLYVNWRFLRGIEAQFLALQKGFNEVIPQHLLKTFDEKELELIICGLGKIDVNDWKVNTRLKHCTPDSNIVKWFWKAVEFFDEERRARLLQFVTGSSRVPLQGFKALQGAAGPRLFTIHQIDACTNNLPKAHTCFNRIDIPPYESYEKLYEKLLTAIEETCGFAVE

effect of a mutation on the interaction	Variant
disrupting interaction strength	Y42A
